Experimental data published in the supplement of paper PMC9170038.

System: MS2 coat protein
Assay: apparent KD of MS2 coat protein; designed switch direction (-1 OFF switch, 1 ON switch): -1; higher = weaker reporter binding
In short: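 Designed RNA switches with common flanks were made on Illumina chips by stalled E. coli RNA polymerase. Titration with SNAP-549-labelled MS2 coat protein doubled from 0.7 or 1.5 nM up to 3 µM. Apparent KD is each design's median over clusters after curve-fitting normalised fluorescence.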

[1] = Eterna round: R95, input ligand: microRNA oligo, concentration not stated
[2] = Eterna round: R95, input ligand: FMN 200 uM
[3] = Eterna round: R95, input ligand: none
[4] = input ligand: microRNA oligo, concentration not stated

With “CUGAUGUCAGGAUAUCAGAAAAGGUGCAAGGACGCACCAAAUGAGAAGGGACAUGAGGAUCACCCAUGUAAAAC [Maqucema] (puzzle: Exclusion 4)” the “apparent KD of MS2 coat protein” value [1] was 25.4 nM.
“GAGAAACAUGAGGAUCACCCAUGUCAGGAUAUUCGGAGGAGAGGGAAGAGAGAGAGGAGAAGAAGGGACGAGAG [Exclusion 1 Rhiboswitch & Hairpin Submission (Joejoemyo11)] (puzzle: Exclusion 1)” was tested, and the “apparent KD of MS2 coat protein” value [2] was 38.7 nM, the “apparent KD of MS2 coat protein” value [1] was 26 nM and the “apparent KD of MS2 coat protein” value [3] was 55.7 nM.
In the case of “UGUACUAACACGAUAGUGUUAGUACUAUAAGCUUGUGUUACAUGAGGAUCACCCAUGUCCUCAUAGGCUCGUCUUAU [Mat - Sensor v3 - Turn-off var 2 - D87] (puzzle: Sensor v3, turn-off variant 2)”, the “apparent KD of MS2 coat protein” value [2] was 646 nM, the “apparent KD of MS2 coat protein” value [1] was 47.5 nM and the “apparent KD of MS2 coat protein” value [3] was 446 nM.
In the case of “GUCUUACAUGAGGAUCACCCAUGUGAGGAUAUGGUUUCGCUGGCCGUAGCCAGUGGAACCAGAAGGCGCGUGAU [Mat - Exclusion 1 - JL Mod - D20] (Eterna round: R97, puzzle: Exclusion 1)”, the “apparent KD of MS2 coat protein” value (input ligand: FMN 200 uM) was 73.1 nM and the “apparent KD of MS2 coat protein” value (input ligand: none) was 72.8 nM.
“AUGUUGCGAGGAUAUAUAAGGGUAUAUUCUUAAGAUAUGGAACAUGAGGAUCACCCAUGUAGAAGGUGCAUAAC [JR_Ex2_Sub043] (Eterna round: R97, puzzle: Exclusion 2)” was tested, and the “apparent KD of MS2 coat protein” value (input ligand: FMN 200 uM) was 79.1 nM and the “apparent KD of MS2 coat protein” value (input ligand: none) was 73 nM.
“CUGAGGUAGCGGUCCUAUGACAUGAGGAUCACCCAUGUACCUUGCUUCGAGCAUUUUGCUCGUCUUAUGAUUCUCGG [Mat - Sensor v3 - turn-off var 1 - JL Mod - D35] (puzzle: Sensor v3, turn-off variant 1)” was tested, and the “apparent KD of MS2 coat protein” value [2] was 450 nM, the “apparent KD of MS2 coat protein” value [1] was 481 nM and the “apparent KD of MS2 coat protein” value [3] was 507 nM.
With “ACAUGAGGAUCACCCAUGUGACAACAAUGGCUGAUAUAGAAACAGGAUAUUCGUGAAUAUCUAACGAAGAAGGGUUAUGACUGG [Deportation 66 - Jieux - Exclusion NG 3] (Eterna round: R96, puzzle: Exclusion NG 3)” the “apparent KD of MS2 coat protein” value (input ligand: FMN 200 uM) was 50.4 nM, the “apparent KD of MS2 coat protein” value [4] was 43.1 nM and the “apparent KD of MS2 coat protein” value (input ligand: none) was 54.1 nM.
With “GCGCACCUACCAAAAGGUAGGACAACAUGAGGAUCACCCAUGUAGGAUAUCGAUUGCUUUGCAGUCGAGAAGGACAUGAUGCGC [JL ENG3 3.80 Mod 7] (Eterna round: R96, puzzle: Exclusion NG 3)” the “apparent KD of MS2 coat protein” value (input ligand: FMN 200 uM) was 111 nM, the “apparent KD of MS2 coat protein” value [4] was 25.9 nM and the “apparent KD of MS2 coat protein” value (input ligand: none) was 34.7 nM.
With “UGCAGACGAGGAUAUAAAUUUGAUAACAUGAGGAUCACCCAUGUGAUCGAUAGAUCAAAUUUAGAAGGUGUCUGCA [E5/7-B2] (Eterna round: R97, puzzle: Exclusion 5)” the “apparent KD of MS2 coat protein” value (input ligand: FMN 200 uM) was 443 nM and the “apparent KD of MS2 coat protein” value (input ligand: none) was 576 nM.
With “CUGGUCCGAGGAUAUAUUUUGUGAAACAUGAGGAUCACCCAUGUAAUAAAAUGGAAAUAAAUAGAAGGCGGACUAG [Mat - Exclusion 5 - JL mod - D42] (puzzle: Exclusion 5)” the “apparent KD of MS2 coat protein” value [2] was 25.2 nM, the “apparent KD of MS2 coat protein” value [1] was 20.8 nM and the “apparent KD of MS2 coat protein” value [3] was 24.2 nM.
For “CUCUCGGUAGGAUAUCCUCCGCCGAACAUGAGGAUCACCCAUGUCACUGCCACUACGCUAGGAGAAGGGCCAGACG [Eternabot (L2) Solution 55] (Eterna round: R97, puzzle: Exclusion 5)”, the “apparent KD of MS2 coat protein” value (input ligand: FMN 200 uM) was 81.6 nM and the “apparent KD of MS2 coat protein” value (input ligand: none) was 85.8 nM.
“UUCAUGUGAGGAUAUAGUACUCCUUCUAUUAUUAUUGAGUAUUAGAAGGCACAUGAGGAUCACCCAUGUAGUAC [Ex4 - 3 - 40] (puzzle: Exclusion 4)” was tested, and the “apparent KD of MS2 coat protein” value [1] was 24.3 nM.
With “UUUAGUUCAGGAUAUGUAGACAUUAACAUGAGGAUCACCCAUGUAGAUCCUGAAUUAACUACAGAAGGGAGCAUUU [Mod of Brourd 8 - Jieux - Exclusion 5] (Eterna round: R97, puzzle: Exclusion 5)” the “apparent KD of MS2 coat protein” value (input ligand: FMN 200 uM) was 19.3 nM and the “apparent KD of MS2 coat protein” value (input ligand: none) was 15.3 nM.
“AGCUGUGGCCGAGGAUAUCUGUUCCAUAUAACCGACGUAUAGUCGGACAUGAGGAUCACCCAUGUAGAGAAGGCGGUCUCAGCA [Eli eng2 - 000] (Eterna round: R96, puzzle: Exclusion NG 2)” was tested, and the “apparent KD of MS2 coat protein” value (input ligand: FMN 200 uM) was 39.2 nM, the “apparent KD of MS2 coat protein” value [4] was 23.3 nM and the “apparent KD of MS2 coat protein” value (input ligand: none) was 25.4 nM.
For “ACAUGAGGAUCACCCAUGUGAAAACAAUGGCUGACAAAGAGAUAGGAUAUAUGUGCAUAUCAAACAUAGAAGGGUCAUUACUGG [Deportation 87 - Jieux - Exclusion NG 3] (Eterna round: R96, puzzle: Exclusion NG 3)”, the “apparent KD of MS2 coat protein” value (input ligand: FMN 200 uM) was 42.7 nM, the “apparent KD of MS2 coat protein” value [4] was 42.5 nM and the “apparent KD of MS2 coat protein” value (input ligand: none) was 49.8 nM.
With “GAAAACGCAGAGGAUAUAUCAGAUCAAAGCUGCAUAGAAGGCUGCACAUGAGGAUCACCCAUGUGGUCUUCAAA [jl-ex6-4.01 ViennaUCT mod] (Eterna round: R97, puzzle: Exclusion 6)” the “apparent KD of MS2 coat protein” value (input ligand: FMN 200 uM) was 243 nM and the “apparent KD of MS2 coat protein” value (input ligand: none) was 20.9 nM.
For “GUACUACAUGAGGAUCACCCAUGUCAGGAUAUGGGAAUUUCAUCAAAAGAUGAAAUUCUUAGAAGGGACAGUAC [Omei Ex1 A5] (Eterna round: R97, puzzle: Exclusion 1)”, the “apparent KD of MS2 coat protein” value (input ligand: FMN 200 uM) was 24.6 nM and the “apparent KD of MS2 coat protein” value (input ligand: none) was 22.2 nM.
For “AGCUGUGGCCGAGGAUAUCUAUCCAAUAAAACCGAAAUAUAAUCGGACAUGAGGAUCACCCAUGUAGAGAAGGCGGUCUCAGCA [Eli eng2 - 094] (Eterna round: R96, puzzle: Exclusion NG 2)”, the “apparent KD of MS2 coat protein” value [4] was 16.4 nM.
In the case of “UGCUAGUCAGGAUAUACGAACAUGUCAAAAGACGUGAAGGGACAUGAGGAUCACCCAUGUAGAAGGGACUAGCG [salish99_ex2_r3_007] (puzzle: Exclusion 2)”, the “apparent KD of MS2 coat protein” value [2] was 144 nM, the “apparent KD of MS2 coat protein” value [1] was 27.2 nM and the “apparent KD of MS2 coat protein” value [3] was 27.9 nM.
“GAUUUAGAGCAGGAUAUCAUAGAAUUAUAUGAAUGAGAAGGGCUCACAUGAGGAUCACCCAUGUGGUCCUAGAU [JL Dibiri mod 22] (puzzle: Exclusion 6)” was tested, and the “apparent KD of MS2 coat protein” value [1] was 22.8 nM.
For “CGGCCUCGAGGAUAUGCUAUAAAAUGACCUUGGGUCAAAUGACUUGAGGAUCACCCAAGUAGAAGGCGAAAGCC [Bibice] (Eterna round: R97, puzzle: Exclusion 2)”, the “apparent KD of MS2 coat protein” value (input ligand: FMN 200 uM) was 102 nM and the “apparent KD of MS2 coat protein” value (input ligand: none) was 93 nM.
For “AGAAAUGCCCAUGGCCACAAGCUUUUUGCUUAUCUUACUACAUGAGGAUCACCCAUGUAACAUGGGCUCCUGACAAU [Enrionera] (puzzle: Sensor v3, turn-off variant 2)”, the “apparent KD of MS2 coat protein” value [2] was 14.9 nM, the “apparent KD of MS2 coat protein” value [1] was 11.2 nM and the “apparent KD of MS2 coat protein” value [3] was 13.3 nM.
For “GCGCCAUCGUGAGAUGGCGUAACUACAUGAGGAUCACCCAUGUAGGAUAUCGAUUGCUUUGCAGUCGAGAAGGGCGAGGGAUUU [JL ENG3 3.89] (Eterna round: R96, puzzle: Exclusion NG 3)”, the “apparent KD of MS2 coat protein” value (input ligand: FMN 200 uM) was 18.1 nM, the “apparent KD of MS2 coat protein” value [4] was 13.2 nM and the “apparent KD of MS2 coat protein” value (input ligand: none) was 17.6 nM.
For “GGCGCCUGAGGAUAUCAGUCUGGAUCAGAAUAGAUCCUGACUGAGAAGGCACAUGAGGAUCACCCAUGUUCGCC [Eli 4x 4.28] (Eterna round: R97, puzzle: Exclusion 4)”, the “apparent KD of MS2 coat protein” value (input ligand: FMN 200 uM) was 16.4 nM and the “apparent KD of MS2 coat protein” value (input ligand: none) was 14.8 nM.
In the case of “AGAAAUGCCCAUGGCAACAAGCUUUUUGCUUGUCUUACCACAUGAGGAUCACCCAUGUGACAUGGGCUCCUGAUAAU [Ladidier] (puzzle: Sensor v3, turn-off variant 2)”, the “apparent KD of MS2 coat protein” value [2] was 12.4 nM, the “apparent KD of MS2 coat protein” value [1] was 10.6 nM and the “apparent KD of MS2 coat protein” value [3] was 12.2 nM.
For “AAGGAAAAGUGAGGAUAUGGAAAUUUGGUGAUAACAUGAGGAUCACCCAUGUGAAAACAAUAAAAUUAGAAGGUAUAAAGAAAA [AK ExNG2-1.1] (Eterna round: R96, puzzle: Exclusion NG 2)”, the “apparent KD of MS2 coat protein” value (input ligand: FMN 200 uM) was 120 nM, the “apparent KD of MS2 coat protein” value [4] was 66.7 nM and the “apparent KD of MS2 coat protein” value (input ligand: none) was 107 nM.
In the case of “GCAUGGCGAGGAUAUACAUGAGGAUCACCCAUGUGAGAAGAAUAAGUGAGGAAGAAAAGUAGAAGGCGCUGUGG [Mat - Exclusion 3 - Mod of Salish D63] (puzzle: Exclusion 3)”, the “apparent KD of MS2 coat protein” value [2] was 128 nM, the “apparent KD of MS2 coat protein” value [1] was 51.5 nM and the “apparent KD of MS2 coat protein” value [3] was 85 nM.
In the case of “AAGUAUAGAGGAUAUAGUGAGUACUACAUGAGGAUCACCCAUGUUCUUCACAGCGUAUUUCUAGAAGGCUGUUAAA [EX-5 Malc#19] (puzzle: Exclusion 5)”, the “apparent KD of MS2 coat protein” value [2] was 29.6 nM, the “apparent KD of MS2 coat protein” value [1] was 26.5 nM and the “apparent KD of MS2 coat protein” value [3] was 26.4 nM.
For “CUGGUCCGAGGAUAUAUUAAGUGAUACAUGAGGAUCACCCAUGUAAUUUAAUGGAUGUAAAUAGAAGGCGGACUAG [JL-ex5-3.11] (puzzle: Exclusion 5)”, the “apparent KD of MS2 coat protein” value [2] was 43.2 nM, the “apparent KD of MS2 coat protein” value [1] was 39.7 nM and the “apparent KD of MS2 coat protein” value [3] was 38.7 nM.
“UACAUGAGGAUCACCCAUGUUUUGUCGUGUAUGGUAUUUAUCUAGGAUAUCAAUUGAUUUAUGUAUGAGAAGGAGAAUAUUAAU [JMF's solution 63] (Eterna round: R96, puzzle: Exclusion NG 3)” was tested, and the “apparent KD of MS2 coat protein” value (input ligand: FMN 200 uM) was 41.1 nM, the “apparent KD of MS2 coat protein” value [4] was 34.9 nM and the “apparent KD of MS2 coat protein” value (input ligand: none) was 34.8 nM.
With “UAAAUGGUGUCAGGAUAUCCUGCAUAGUCUGCUGGAGAAGGGACAUGAGGAUCACCCAUGUAAGCCGGCAUGACUGAAUUCCUC [Atrice] (Eterna round: R96, puzzle: Exclusion NG 1)” the “apparent KD of MS2 coat protein” value (input ligand: FMN 200 uM) was 50.7 nM, the “apparent KD of MS2 coat protein” value [4] was 23.3 nM and the “apparent KD of MS2 coat protein” value (input ligand: none) was 32.2 nM.
In the case of “UGUUGUCGCGCAGGAUAUGAGGAUCACCCAUAGAAGGAUAUCGAAAGAGAAGGUCUGAGGAUUACCCAGAAGGGCGGGACAACU [pwkr exNG2 2xF5 2xFMN.13] (Eterna round: R96, puzzle: Exclusion NG 2)”, the “apparent KD of MS2 coat protein” value (input ligand: FMN 200 uM) was 807 nM, the “apparent KD of MS2 coat protein” value [4] was 133 nM and the “apparent KD of MS2 coat protein” value (input ligand: none) was 137 nM.
In the case of “UUAUUACAAGCAAGAUCUCACAUGAGGAUCACCCAUGUGCUCGUCUUAUAAGGUACUGUGACGAAAGUCACGGUACC [Eli 100 v1] (Eterna round: R97, puzzle: Sensor, turn-off variant 1)”, the “apparent KD of MS2 coat protein” value (input ligand: FMN 200 uM) was 14.8 nM and the “apparent KD of MS2 coat protein” value (input ligand: none) was 17.3 nM.
